Target: the molecule itself
Test: cryo-EM structure; Dmc1 2.5 uM with 0.125 uM 96-mer ssDNA in HR buffer with 1.5 mM CaCl2 and 5 mM ADP, 30°C 5 min, then 8 mM CHAPSO; helical filament in the ADP-bound state (interdigitated filaments masked to a single filament); filament formation required the ssDNA

B1: S. cerevisiae Dmc1 (natural protein)
chain: MSVTGTEIDSDTAKNILSVDELQNYGINASDLQKLKSGGIYTVNTVLSTTRRHLCKIKGLSEVKVEKIKEAAGKIIQVGFIPATVQLDIRQRVYSLSTGSKQLDSILGGGIMTMSITEVFGEFRCGKTQMSHTLCVTTQLPREMGGGEGKVAYIDTEGTFRPERIKQIAEGYELDPESCLANVSYARALNSEHQMELVEQLGEELSSGDYRLIVVDSIMANFRVDYCGRGELSERQQKLNQHLFKLNRLAEEFNVAVFLTNQVQSDPGASALFASADGRKPIGGHVLAHASATRILLRKGRGDERVAKLQDSPDMPEKECVYVIGEKGITDSSD
notes: Dmc1 meiotic recombinase, Saccharomyces cerevisiae; expressed from a plasmid encoding 6XHisDmc1; Stood in the assay as a helical filament of many protomers, assembled with a 96-nt ssDNA, ADP, Mg2+ and Ca2+; no removal of the His tag is described; also called Dmc1-ADP; source: E. coli BL21 (DE3) Rosetta2, purified (Talon resin, heparin sepharose)
binding result: binds
